According to patent US20020150536, “Nucleic acid ligands to integrins” (GILEAD SCIENCES, INC., published 2002):

Key:
integrin alphaV beta5 = integrin alphaV beta5 (Homo sapiens, UniProt P06756;P06756;P18084 P06756:31-889,P06756:891-1048,P18084:24-799); assay: no binding observed to immobilized alphaV beta5; conditions: tags: Chemicon International
Procedure: (§1) The affinity of individual RNAs and RNA pools for αᵥβ₃ was determined by titration of biotinylated RNA with a small quantity of immobilized integrin. Bound RNA was detected through the biotin moiety. Biotinylated RNA was prepared according to standard transcription protocols, but including a 5-fold molar excess of a 5′-biotin-modified GMP over GTP in the reaction mixture. Methods for synthesizing 5′-biotin-modified guanosine nucleotides are described in WO 98/30720 entitled “Bioconjugation of Oligonucleotides,” specifically incorporated herein by reference in its entirety. The modified nucleotide is incorporated at the 5′ end of the transcript in proportion to its representation in the guanosine pool. 96-well microtiter plates (Immulon 2, Dynatech Laboratories, Inc., Chantilly, Va.) were coated overnight at 4° C. with 100 μL purified αᵥβ₃ at a concentration of 0.25 μg/mL in 20 mM TrisHCl, pH 7.5, 150 mM NaCl, 1 mM MgCl₂, 2 mM CaCl₂, 0.1 mM MnCl₂. Coating concentrations were 0.8 μg/mL for αIIbβ₃ and 0.3 μg/mL for αᵥβ₅. Wells were blocked with 200 μL of a solution of 3% BSA in the same buffer (1 hour at room temperature) then rinsed 3 times with 200 μL binding buffer (50 mM TrisHCl, pH 7.5, 137 mM NaCl, 2.7 mM KCl, 1 mM MgCl₂, 2 mM CaCl₂, 0.1 mM MnCl₂, 0.1% BSA). […] Color development was monitored by absorbance at 405 nm.

[1] = molecular target: integrin alphaIIb beta3 on human platelets (Homo sapiens, UniProt P08514;P08514;P05106 P08514:32-887,P08514:891-1039,P05106:27-788); assay: flow; EDTA-sensitive binding, same for resting and thrombin-activated platelets; Mg2+, Ca2+, room temperature
Procedure: Human platelets were chosen for this purpose because of their ease of isolation and their high level of expression of integrin αIIbβ₃. Because αIIbβ₃ undergoes a conformational change upon platelet activation, binding of the aptamer to both resting and thrombin-activated platelets was tested. […] Briefly, RNA was transcribed in the presence of a 5-fold molar excess of the initiator nucleotide guanosine-5′-O-(2-thiodiphosphate) (Calciochem), followed by conjugation of the gel-purified RNA to 5-iodoacetamidofluorescein (Pierce, Rockford, Ill.). Platelet-rich plasma was prepared from freshly-drawn citrated human blood by centrifugation at 1000 rpm for 15 minutes in a table top centrifuge. For activated platelets, cells were incubated for 15 minutes at room temperature at 2×10⁷/mL in calcium- and magnesium-free Dulbecco's PBS with 2.5 U/mL thrombin and 5 mM Gly-Pro-Arg-Pro (GPRP) to inhibit platelet aggregation. […] Resting cells were diluted similarly, without exposure to thrombin or GPRP. The activation state of resting and thrombin-treated cells was monitored by staining with fluorophore-conjugated antibodies to CD61 (β₃ integrin subunit), which binds to all platelets, and to CD62 (P-selectin), a marker of platelet activation. […] The incubation mixtures were applied directly to a Becton Dickinson FACSCalibur flow cytometer to determine the mean fluorescence intensity of the sample. […]

integrin alphaIIb beta3 [2] = molecular target: T1, integrin alphaIIb beta3 (UniProt P08514;P08514;P05106 P08514:32-887,P08514:891-1039,P05106:27-788); assay: affinity identical to alphaV beta3; platelet Kd of ~10 nM stated equivalent to purified alphaIIb beta3; conditions: tags: Enzyme Research Laboratories
Procedure: as §1

integrin alphaV beta3 [3] = molecular target: T2, integrin alphaV beta3 (Homo sapiens, UniProt P06756;P06756;P05106 P06756:31-889,P06756:891-1048,P05106:27-788); assay: inhibition; inhibition of biotinylated vitronectin binding (10 nM), room temperature
Procedure: (§2) While the SELEX process identifies RNA sequences with high affinity for a particular target, the procedure used in this example was designed to bias for the recovery of ligand binding site inhibitors by the inclusion of a cRGD peptide competitor in the elution buffer. To test whether aptamer 17.16 could block the ligand binding site of αᵥβ₃ or αIIbβ₃, purified vitronectin and fibrinogen were biotinylated and incubated with one or both of the immobilized integrins in the presence or absence of varying concentrations of the aptamer or a non-binding control RNA. This was done as follows: purified integrin ligands, vitronectin and fibrinogen, were biotinylated according to (Smith et al. (1990) J. Biol. Chem. 265:12267-71). Briefly, proteins were dialyzed into 0.1 M NaHCO₃, 0.1 M NaCl. N-hydroxysuccinimido-LC-biotin (Pierce) was dissolved at 1 mg/mL in DMSO and added to the protein at a ratio of 0.1 mg biotin per 1 mg protein. The reaction was allowed to rotate at room temperature for 2 hours. Biotinylated proteins were dialyzed into phosphate-buffered saline and their concentrations determined by absorbance at 280 nm. […] Absorbance was read at 405 nm.

integrin alphaV beta3 [4] = molecular target: T2, integrin alphaV beta3; assay: microtiter plate, streptavidin-AP; Mg2+, Ca2+, Mn2+, pH 7.5, 37 C
Procedure: The affinity of individual RNAs and RNA pools for αᵥβ₃ was determined by titration of biotinylated RNA with a small quantity of immobilized integrin. Bound RNA was detected through the biotin moiety. Biotinylated RNA was prepared according to standard transcription protocols, but including a 5-fold molar excess of a 5′-biotin-modified GMP over GTP in the reaction mixture. Methods for synthesizing 5′-biotin-modified guanosine nucleotides are described in WO 98/30720 entitled “Bioconjugation of Oligonucleotides,” specifically incorporated herein by reference in its entirety. The modified nucleotide is incorporated at the 5′ end of the transcript in proportion to its representation in the guanosine pool. 96-well microtiter plates (Immulon 2, Dynatech Laboratories, Inc., Chantilly, Va.) were coated overnight at 4° C. with 100 μL purified αᵥβ₃ at a concentration of 0.25 μg/mL in 20 mM TrisHCl, pH 7.5, 150 mM NaCl, 1 mM MgCl₂, 2 mM CaCl₂, 0.1 mM MnCl₂. Coating concentrations were 0.8 μg/mL for αIIbβ₃ and 0.3 μg/mL for αᵥβ₅. Wells were blocked with 200 μL of a solution of 3% BSA in the same buffer (1 hour at room temperature) then rinsed 3 times with 200 μL binding buffer (50 mM TrisHCl, pH 7.5, 137 mM NaCl, 2.7 mM KCl, 1 mM MgCl₂, 2 mM CaCl₂, 0.1 mM MnCl₂, 0.1% BSA). Individual RNAs or RNA pools were denatured briefly at 93° C. in binding buffer without divalent cations or BSA, then serially diluted in the same buffer. 50 μL binding buffer containing 2×-concentrations of divalent cations and BSA were added to each well, followed by 50 μL RNA dilution. RNAs were allowed to incubate in the integrin-coated wells at 37° C. for 30-60 minutes. Unbound RNAs were removed by 3 rapid washes in binding buffer. To detect bound RNA, 100 μL of a 1:2500 dilution in binding buffer of streptavidin-alkaline phosphatase conjugate (Calbiochem) were incubated in each well for 30 minutes at room temperature, followed by three rapid washes, as above. 100 μL/well p-nitrophenyl phosphate (Sigma Chemical Co., St. Louis, Mo.) was added and incubated at room temperature for 30 minutes. Color development was monitored by absorbance at 405 nm.

integrin alphaV beta3 [5] = molecular target: T2, integrin alphaV beta3; assay: inhibition; inhibition of biotinylated fibrinogen binding (6 nM), room temperature
Procedure: (§3) An estimate of the maximum absorbance value was determined for each ligand/integrin pair in the absence of competitor. The baseline absorbance value was determined by adding 5 mM EDTA to the incubation buffer.
as §2

integrin alphaIIb beta3 [6] = molecular target: T1, integrin alphaIIb beta3; assay: as above; conditions: tags: Enzyme Research Laboratories
Procedure: as §3, §2

T2 sequence (P06756 31-889, chain 1 of 3): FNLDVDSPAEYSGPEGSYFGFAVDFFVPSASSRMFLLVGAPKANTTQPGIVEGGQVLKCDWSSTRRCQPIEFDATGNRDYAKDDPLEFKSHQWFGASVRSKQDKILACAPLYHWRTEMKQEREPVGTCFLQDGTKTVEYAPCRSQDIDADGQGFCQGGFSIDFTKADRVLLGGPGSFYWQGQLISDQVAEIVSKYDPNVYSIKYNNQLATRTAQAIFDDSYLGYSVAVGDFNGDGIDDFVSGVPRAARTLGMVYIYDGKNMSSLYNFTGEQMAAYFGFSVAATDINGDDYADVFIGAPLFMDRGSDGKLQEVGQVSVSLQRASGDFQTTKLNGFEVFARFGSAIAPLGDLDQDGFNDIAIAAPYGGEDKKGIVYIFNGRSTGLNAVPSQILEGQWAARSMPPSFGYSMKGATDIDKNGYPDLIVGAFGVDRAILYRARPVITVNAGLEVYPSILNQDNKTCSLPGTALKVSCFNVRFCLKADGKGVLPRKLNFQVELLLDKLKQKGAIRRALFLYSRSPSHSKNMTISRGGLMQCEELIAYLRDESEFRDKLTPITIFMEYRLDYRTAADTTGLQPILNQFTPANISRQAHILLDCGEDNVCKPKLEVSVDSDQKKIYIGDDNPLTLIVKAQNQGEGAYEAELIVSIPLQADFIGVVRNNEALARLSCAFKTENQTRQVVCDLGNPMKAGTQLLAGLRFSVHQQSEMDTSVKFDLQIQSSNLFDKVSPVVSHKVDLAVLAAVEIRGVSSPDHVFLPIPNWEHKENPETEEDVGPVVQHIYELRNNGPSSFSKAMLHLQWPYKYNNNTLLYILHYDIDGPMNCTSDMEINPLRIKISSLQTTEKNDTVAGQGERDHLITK
T2 sequence (P06756 891-1048, chain 2 of 3): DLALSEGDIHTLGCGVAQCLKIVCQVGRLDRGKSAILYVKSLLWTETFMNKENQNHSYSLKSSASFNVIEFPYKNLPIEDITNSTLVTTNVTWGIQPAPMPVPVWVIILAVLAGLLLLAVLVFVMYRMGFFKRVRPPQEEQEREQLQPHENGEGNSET
T2 sequence (P05106 27-788, chain 3 of 3): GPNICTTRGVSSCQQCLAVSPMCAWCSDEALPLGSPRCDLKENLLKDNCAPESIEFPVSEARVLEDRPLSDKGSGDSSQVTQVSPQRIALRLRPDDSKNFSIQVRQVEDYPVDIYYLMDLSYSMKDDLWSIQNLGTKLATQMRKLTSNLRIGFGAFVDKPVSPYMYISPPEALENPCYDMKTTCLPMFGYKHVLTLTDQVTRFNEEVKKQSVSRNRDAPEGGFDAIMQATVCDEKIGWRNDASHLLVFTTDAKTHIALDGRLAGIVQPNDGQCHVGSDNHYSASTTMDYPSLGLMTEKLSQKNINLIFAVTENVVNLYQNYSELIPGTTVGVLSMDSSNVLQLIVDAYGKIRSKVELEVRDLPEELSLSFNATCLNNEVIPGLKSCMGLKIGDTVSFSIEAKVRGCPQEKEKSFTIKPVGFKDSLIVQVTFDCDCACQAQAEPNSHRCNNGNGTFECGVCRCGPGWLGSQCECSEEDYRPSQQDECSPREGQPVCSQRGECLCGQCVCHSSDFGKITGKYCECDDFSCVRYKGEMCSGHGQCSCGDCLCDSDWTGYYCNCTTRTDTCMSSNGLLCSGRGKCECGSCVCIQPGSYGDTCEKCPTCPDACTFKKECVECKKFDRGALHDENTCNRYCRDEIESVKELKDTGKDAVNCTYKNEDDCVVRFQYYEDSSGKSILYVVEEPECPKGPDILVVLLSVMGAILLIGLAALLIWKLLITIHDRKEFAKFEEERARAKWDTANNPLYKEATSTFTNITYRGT
Chain of integrin alphaV beta5 (P06756 31-889, chain 1 of 3): as the sequence (P06756 31-889, chain 1 of 3) above
Chain of integrin alphaV beta5 (P06756 891-1048, chain 2 of 3): as the sequence (P06756 891-1048, chain 2 of 3) above
Chain of integrin alphaV beta5 (P18084 24-799, chain 3 of 3): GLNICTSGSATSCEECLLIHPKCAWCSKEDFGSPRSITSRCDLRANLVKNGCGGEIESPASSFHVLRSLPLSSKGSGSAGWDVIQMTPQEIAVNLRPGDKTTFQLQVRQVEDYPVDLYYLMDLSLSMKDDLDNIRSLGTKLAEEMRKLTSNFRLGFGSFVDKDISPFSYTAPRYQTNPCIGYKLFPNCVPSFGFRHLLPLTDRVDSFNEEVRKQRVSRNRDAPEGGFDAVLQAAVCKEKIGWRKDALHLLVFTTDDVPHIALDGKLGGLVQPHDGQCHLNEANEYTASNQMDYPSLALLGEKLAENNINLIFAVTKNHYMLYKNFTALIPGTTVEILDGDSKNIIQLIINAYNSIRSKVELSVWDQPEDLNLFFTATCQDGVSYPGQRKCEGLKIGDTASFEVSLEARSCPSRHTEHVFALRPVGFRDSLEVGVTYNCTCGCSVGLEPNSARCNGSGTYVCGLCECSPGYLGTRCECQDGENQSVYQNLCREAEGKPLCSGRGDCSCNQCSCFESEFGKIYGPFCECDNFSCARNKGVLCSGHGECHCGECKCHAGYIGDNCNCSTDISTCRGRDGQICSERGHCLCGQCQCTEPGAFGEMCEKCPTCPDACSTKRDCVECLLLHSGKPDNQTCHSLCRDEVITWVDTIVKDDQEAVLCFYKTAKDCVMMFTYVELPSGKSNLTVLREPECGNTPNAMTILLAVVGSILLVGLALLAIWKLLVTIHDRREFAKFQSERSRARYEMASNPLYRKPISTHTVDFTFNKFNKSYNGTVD

B1: 17.16 (ssRNA)
RNA: GGGAGACAAGAAUAAACGCUCAAUUCAACGCUGUGAAGGGCUUAUACGAGCGGAUUACCCUUCGACAGGAGGCUCACAACAGGC
modifications: 2'-F C and U
binding result (integrin alphaV beta5): no binding | Kd [1]: ~10 nM | Kd (integrin alphaIIb beta3 [2]): ~10 nM | IC50 (integrin alphaV beta3 [3]): 4.7 nM | Kd (integrin alphaV beta3 [4]): 8 nM | IC50 (integrin alphaV beta3 [5]): 9.5 nM | IC50 (integrin alphaIIb beta3 [6]): 6.5 nM
